Results: article PMC5383425, “Differential CLE peptide perception by plant receptors implicated from structural and functional analyses of TDIF-TDR interactions” (PLoS ONE, 2017)

B1: Tracheary Element Differentiation Inhibitory Factor (TDIF) peptide [modified: hydroxyproline at 4 and 7; hydroxyproline at 4 and 7] [Arabidopsis thaliana] / extracellular domain of A. thaliana TDR (residues 30-642) [modified: … (parent)
chain 1: HEVPSGPNPISN
chain 2: LKFSPQLLSLLSLKTSLSGPPSAFQDWKVPVNGQNDAVWCSWSGVVCDNVTAQVISLDLSHRNLSGRIPIQIRYLSSLLYLNLSGNSLEGSFPTSIFDLTKLTTLDISRNSFDSSFPPGISKLKFLKVFNAFSNNFEGLLPSDVSRLRFLEELNFGGSYFEGEIPAAYGGLQRLKFIHLAGNVLGGKLPPRLGLLTELQHMEIGYNHFNGNIPSEFALLSNLKYFDVSNCSLSGSLPQELGNLSNLETLFLFQNGFTGEIPESYSNLKSLKLLDFSSNQLSGSIPSGFSTLKNLTWLSLISNNLSGEVPEGIGELPELTTLFLWNNNFTGVLPHKLGSNGKLETMDVSNNSFTGTIPSSLCHGNKLYKLILFSNMFEGELPKSLTRCESLWRFRSQNNRLNGTIPIGFGSLRNLTFVDLSNNRFTDQIPADFATAPVLQYLNLSTNFFHRKLPENIWKAPNLQIFSASFSNLIGEIPNYVGCKSFYRIELQGNSLNGTIPWDIGHCEKLLCLNLSQNHLNGIIPWEISTLPSIADVDLSHNLLTGTIPSDFGSSKTITTFNVSYNQLIGPIPSGSFAHLNPSFFSSNEGLCGDLVGKPCNSDRFNAGNADIDG

Variants of: B1
Assay: ITC
Conditions: with extracellular domain of A. thaliana TDR (residues 30-642) [modified: N-glycosylated at N111, N356, N378, N471 and N525 (one GlcNAc visible on each in the struct); parent: 103 nM

| Variant | Kd |
| --- | --- |
| chain 1 N8A | 308 nM |
| chain 1 H1A E2A V3A | 252000 nM |
| chain 1 V3A | 1400 nM |
| chain 1 G6A | 1440 nM |
| chain 1 G6T | 2080 nM |
| chain 1 H1A | 11800 nM |
| chain 1 H1R | 329 nM |
| chain 1 E2R | 543 nM |
| chain 1 E2A | 327 nM |
| chain 1 I10A | 641 nM |
| chain 1 N12A | 4700 nM |

Same assay, conditions: with Tracheary Element Differentiation Inhibitory Factor (TDIF) peptide [modified: hydroxyproline at 4 and 7, parent: 103 nM

| Variant | Kd |
| --- | --- |
| chain 2 S276A | 455 nM |
| chain 2 Y205A | 1650 nM |
| chain 2 R109A F132A S133A S158A Y159A | 3240 nM |
| chain 2 R392A R394A | 306 nM |
| chain 2 F252A | 787 nM |
| chain 2 F250A | 307 nM |
| chain 2 F250A F252A | 887 nM |
| chain 2 W324A | 862 nM |

Same assay, conditions: with Tracheary Element Differentiation Inhibitory Factor (TDIF) peptide [modified: hydroxyproline at 4 and 7, parent: 1

| Variant | ratio to parent |
| --- | --- |
| chain 2 Y205A | 16 |
| chain 2 F252A | 7.6 |

Same assay, conditions: with extracellular domain of A. thaliana TDR (residues 30-642) [modified: N-glycosylated at N111, N356, N378, N471 and N525 (one GlcNAc visible on each in the struct); parent: 1

| Variant | ratio to parent |
| --- | --- |
| chain 1 H1A E2A V3A | 2450 |
| chain 1 I10A | 6.2 |
| chain 1 N12A | 45.6 |
